# Reference: publication PMC11289257 (2024)
# B1: porcine antibody C9 (class III) (Fab, V domains shown)
# VH: EVKLVESGGGLVQPGGSLRLSCVGSGFTFSSYEINWVRQAPGKGLEWLAVVSKIGDRTYYADSVRGRLTISRDNSQNTAYLQMNSLRTEDTARYYCVRAWCASTCLPGDIMDLWGPGVGVVVSS
# VL: QTVIQEPAMSVSPGGTVTLTCAWSSGSVTTSNYPSWFQQTPGQPPRQLIYNTNSRPTGVPRRFSGKISGNKAALTITGAQAEDEADYFCGLYKRSANNIFGGGTHLTVL
# B2: porcine antibody B1 (class I) (Fab, V domains shown)
# VH: EVKLVESGGGLVQPGGSLKLSCVGSGSTFSSDAVSWVRQAPGKGLEWLAGIDGDGGGGSTYYADSVKGRFTISRDNSQKTAYLQMNSLRTDDTARYYCAECPMVLLAKCSMEFWGPGVEVVVS
# VL: DIVLTQTPRSLSVSPGEPASISCRSSQSLEEYGKNWLSWYQQKPGQSPRLLIYQATNRASWVPERFSGSGSGTDFTLKISRVEAEDVGVYYCFQDLQPPNGFGAGTKLELK
# B3: porcine antibody F11 (class II) (Fab, V domains shown)
# VH: EEKLVESGGGLVKPGGSLKLSCVGSGSTFSSDAVSWVRQAPGKGLEWLAGIDGDGYGVSTYYADSVKGRFTISRDNSQKTAYLQMNSLRTDDTARYYCAECPMVLLAKCSMEFWGPGVEVVVSS
# VL: QTVIQEPAMSVSLGGTVTLTCAFSSGSVTSSNYPGWFQQTPGQPPRLLIYQTNSRPTGVPSRFSGAISGNRAALTITGAQAEDEADYFCGLWKSGTDLPFGGGTHLTVL
# B4: porcine antibody F5 (class II) (antibody, V domains shown)
# VH: B3 VH
# VL: QTVIQEPAMSVSPGGTVTLTCAFSSGSVTTRNYPSWFQQTPGQPPRLLIGRTNNRPTGVPSRFSGVISGNKAALVITGAQANDEATYFCSLYSPDTIIFGSGTHLTVL
# B5: porcine antibody G6 (class IV) (Fab, V domains shown)
# VH: EVKLVESGGGLVQPGGSLTLSCVGSGYTFSSYPICWVRQAPGKGLEWLSCIDSSGSKMHLADSVLSRFTISKDNSQNTAYLQMNSLRTEDTARYYCARGRWCYGVICDMDLWGPGVEVVVSS
# VL: IVLTQTPLSLSVSPGEPASISCRSSQSLEEYGKNWLSWYQQKPGQSPRLLIYQATNRASWVPERFSGSGSGTDFTLKISRVEAEDAGVYYCQQYKEFPWTFGQGTKLELK
# B6: porcine antibody H3 (class III) (Fab, V domains shown)
# VH: QEKLVESGGGLVQPGGSLILSCVGSGFTFITYEINWVRQAPGKGLEWLAVVSKIGDRTYYAHSVRGRLTISRDNSQNTAYLQMNSLRTEDTARYYCVRAWCATTCLPGDIMDLWGPGVGVIV
# VL: TVIHEPAMSLSPGGTDTLTCAFSSGSITNNNYPSWFQQTPRQPPRLLIYNTNNRPTGVPSRFSGAISGNKAALTITGAQANDEADYFCTLYISIADVIFGGGTHLTVL
# Biological target: T1, African swine fever virus major capsid protein p72 (p72 capsomer, trimer) (African swine fever virus, UniProt P22776)
# Assay: SPR
row,Binder,Kd
1,B1,1490 nM
2,B2,3.12 nM
3,B3,9.13 nM
4,B4,3160 nM
5,B5,1920 nM
6,B6,998 nM

# Biological target: T1, African swine fever virus major capsid …
# Assay: SPR
# Remark: another data set of the same source
row,Binder,koff
1,B1,0.00893 s⁻¹
2,B2,7.08e-05 s⁻¹
3,B3,0.000267 s⁻¹
4,B4,0.0134 s⁻¹
5,B5,0.00952 s⁻¹
6,B6,0.00494 s⁻¹
